From patent publication US20170254813A1 (VENTANA MEDICAL SYSTEMS, published 2017)
Each block holds one binder with its values, some of them ahead of it.

Experiments:
[1] = target: T1, β-catenin (UniProt P35222 2-781); test: in situ proximity assay (chemical ligation and hapten transfer) on FFPE tonsil and skin sections
T1 construct: Endogenous protein in tissue section; also called beta-catenin
T1 sequence (looked up): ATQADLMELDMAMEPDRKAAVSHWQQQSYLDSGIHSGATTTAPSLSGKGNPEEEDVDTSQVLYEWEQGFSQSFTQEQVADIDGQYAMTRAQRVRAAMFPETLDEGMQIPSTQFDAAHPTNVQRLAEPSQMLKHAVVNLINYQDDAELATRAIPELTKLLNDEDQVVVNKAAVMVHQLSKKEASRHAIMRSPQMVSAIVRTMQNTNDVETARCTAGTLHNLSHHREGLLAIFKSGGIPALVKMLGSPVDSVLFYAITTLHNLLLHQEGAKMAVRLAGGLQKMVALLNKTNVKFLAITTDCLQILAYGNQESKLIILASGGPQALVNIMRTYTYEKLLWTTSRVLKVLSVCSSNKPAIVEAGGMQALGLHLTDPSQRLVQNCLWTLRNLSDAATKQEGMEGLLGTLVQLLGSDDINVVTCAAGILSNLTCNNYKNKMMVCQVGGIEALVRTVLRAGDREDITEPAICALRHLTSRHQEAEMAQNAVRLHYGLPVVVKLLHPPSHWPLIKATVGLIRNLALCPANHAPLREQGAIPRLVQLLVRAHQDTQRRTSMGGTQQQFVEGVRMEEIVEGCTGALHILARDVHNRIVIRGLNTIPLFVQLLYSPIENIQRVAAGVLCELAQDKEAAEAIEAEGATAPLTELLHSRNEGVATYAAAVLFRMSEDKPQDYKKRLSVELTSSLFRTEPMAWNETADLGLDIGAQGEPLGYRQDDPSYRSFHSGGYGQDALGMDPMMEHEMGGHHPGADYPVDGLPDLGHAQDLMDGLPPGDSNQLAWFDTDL
Experimental: (§1) IHC staining was performed on a VENTANA BenchMark XT automated slide-processing system (Ventana). For all IHC staining, FFPE sections were first deparaffinization with EZ Prep solution (Ventana) and washed with reaction buffer. Antigen retrieval was carried out in Cell Conditioning 1 (Ventana) (100° C.; 92 minutes) and again washed with 1× reaction buffer (Ventana). […] After thorough wash with reaction buffer, secondary antibody conjugates of GAR-PEG₈-SS-HA-N₃ and GAM-PEG₄-CCH (100 μL of 10 μg/mL each) were added to slides and incubated at 37° C. for 32 minutes. The slides were washed in reaction buffer and water before a drop of 100 μL of HEPES buffer (0.15 M, pH 7.4) was added to the slides. To initiate the azide-acetylene click reaction, 100 μL of Cu(I) catalyst solution was added onto the slide. One working example of the Cu(I) solution contained 0.6 mM CuSO₄, 3 mM THPTA, 10 mM HEPES (pH=7.4), 40% DMSO (v/v) and 4 mM of sodium ascorbate (freshly made and added to CuSO₄ immediately before adding to slide). The click reaction was allowed to proceed for 32 minutes and the slides were washed thoroughly in reaction buffer. […] For chromogenic based detection using diaminobenzidine (DAB), ready-to-use solutions of DAB, H₂O₂ and Copper from an [sequence] […]

[2] = target: T2, CD21 (complement receptor type 2) (UniProt P20023 21-1033, limits assumed); test: in situ proximity assay on FFPE normal tonsil sections
T2 construct: Endogenous protein in tissue section
T2 sequence (looked up): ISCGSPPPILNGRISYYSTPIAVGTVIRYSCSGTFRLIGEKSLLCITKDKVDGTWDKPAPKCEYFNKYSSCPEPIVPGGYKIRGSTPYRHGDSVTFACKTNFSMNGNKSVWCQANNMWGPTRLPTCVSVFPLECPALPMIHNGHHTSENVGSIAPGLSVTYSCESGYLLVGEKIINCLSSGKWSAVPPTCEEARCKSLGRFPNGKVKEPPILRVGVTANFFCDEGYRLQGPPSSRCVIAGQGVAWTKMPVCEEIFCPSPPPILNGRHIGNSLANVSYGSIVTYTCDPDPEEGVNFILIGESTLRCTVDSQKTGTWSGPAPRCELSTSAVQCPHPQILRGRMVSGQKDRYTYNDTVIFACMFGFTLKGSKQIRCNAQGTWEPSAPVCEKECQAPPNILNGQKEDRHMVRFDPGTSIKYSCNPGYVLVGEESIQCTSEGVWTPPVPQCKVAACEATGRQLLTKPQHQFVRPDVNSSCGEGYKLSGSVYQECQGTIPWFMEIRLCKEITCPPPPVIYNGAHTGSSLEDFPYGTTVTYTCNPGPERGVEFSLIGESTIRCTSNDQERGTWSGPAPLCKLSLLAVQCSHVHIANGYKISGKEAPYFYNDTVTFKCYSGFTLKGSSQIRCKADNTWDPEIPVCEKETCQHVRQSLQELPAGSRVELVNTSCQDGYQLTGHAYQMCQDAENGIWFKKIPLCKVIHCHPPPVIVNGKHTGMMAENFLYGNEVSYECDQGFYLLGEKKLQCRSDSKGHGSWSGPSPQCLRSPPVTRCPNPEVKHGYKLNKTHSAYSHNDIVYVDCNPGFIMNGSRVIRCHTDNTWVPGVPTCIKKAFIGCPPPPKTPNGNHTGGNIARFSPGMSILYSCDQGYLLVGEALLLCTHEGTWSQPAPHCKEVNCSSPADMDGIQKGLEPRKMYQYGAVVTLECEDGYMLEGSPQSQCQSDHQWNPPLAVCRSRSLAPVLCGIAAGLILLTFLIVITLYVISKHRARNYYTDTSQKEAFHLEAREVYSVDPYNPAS
Experimental: as §1

[3] = target: T3, PMS2 (UniProt P54278 1-862); test: in situ proximity assay on Hela cell xenograft sections
T3 construct: Endogenous protein of Hela cells in xenograft
T3 sequence (looked up): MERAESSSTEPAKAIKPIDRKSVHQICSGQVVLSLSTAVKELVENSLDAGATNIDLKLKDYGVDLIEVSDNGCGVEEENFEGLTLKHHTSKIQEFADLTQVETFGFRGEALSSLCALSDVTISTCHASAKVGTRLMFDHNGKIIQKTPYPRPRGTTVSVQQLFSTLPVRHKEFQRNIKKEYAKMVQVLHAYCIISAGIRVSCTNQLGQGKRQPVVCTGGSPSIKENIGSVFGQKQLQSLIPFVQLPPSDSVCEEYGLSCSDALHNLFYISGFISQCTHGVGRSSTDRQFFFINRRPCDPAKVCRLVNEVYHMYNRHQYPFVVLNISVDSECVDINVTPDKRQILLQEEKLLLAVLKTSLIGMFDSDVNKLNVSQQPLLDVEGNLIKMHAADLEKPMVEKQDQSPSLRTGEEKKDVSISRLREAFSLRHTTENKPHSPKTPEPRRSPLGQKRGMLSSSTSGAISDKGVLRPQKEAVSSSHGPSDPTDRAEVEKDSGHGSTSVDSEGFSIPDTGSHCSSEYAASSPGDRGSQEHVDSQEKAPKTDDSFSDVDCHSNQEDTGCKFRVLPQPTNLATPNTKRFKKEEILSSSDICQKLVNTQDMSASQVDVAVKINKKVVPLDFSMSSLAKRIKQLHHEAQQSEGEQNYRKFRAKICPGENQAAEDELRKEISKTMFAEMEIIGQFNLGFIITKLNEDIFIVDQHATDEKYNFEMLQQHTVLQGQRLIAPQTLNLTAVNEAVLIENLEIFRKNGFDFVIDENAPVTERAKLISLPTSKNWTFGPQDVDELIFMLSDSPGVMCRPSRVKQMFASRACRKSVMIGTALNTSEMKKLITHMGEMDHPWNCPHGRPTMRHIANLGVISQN

binding result [1]: binds
B1: E-cadherin (other, UniProt P12830 155-882, looked up)
chain: DWVIPPISCPENEKGPFPKNLVQIKSNKDKEGKVFYSITGQGADTPPVGVFIIERETGWLKVTEPLDRERIATYTLFSHAVSSNGNAVEDPMEILITVTDQNDNKPEFTQEVFKGSVMEGALPGTSVMEVTATDADDDVNTYNAAIAYTILSQDPELPDKNMFTINRNTGVISVVTTGLDRESFPTYTLVVQAADLQGEGLSTTATAVITVTDTNDNPPIFNPTTYKGQVPENEANVVITTLKVTDADAPNTPAWEAVYTILNDDGGQFVVTTNPVNNDGILKTAKGLDFEAKQQYILHVAVTNVVPFEVSLTTSTATVTVDVLDVNEAPIFVPPEKRVEVSEDFGVGQEITSYTAQEPDTFMEQKITYRIWRDTANWLEINPDTGAISTRAELDREDFEHVKNSTYTALIIATDNGSPVATGTGTLLLILSDVNDNAPIPEPRTIFFCERNPKPQVINIIDADLPPNTSPFTAELTHGASANWTIQYNDPTQESIILKPKMALEVGDYKINLKLMDNQNKDQVTTLEVSVCDCEGAAGVCRKAQPVEAGLQIPAILGILGGILALLILILLLLLFLRRRAVVKEPLLPPEDDTRDNVYYYDEEGGGEEDQDFDLSQLHRGLDARPEVTRNDVAPTLMSVPRYLPRPANPDEIGNFIDENLKAADTDPTAPPYDSLLVFDYEGSGSEAASLSSLNSSESDKDQDYDYLNEWGNRFKKLADMYGGGEDD
notes: Endogenous protein in tissue section; also called E-cadherein

B2: CD19 (receptor, UniProt P15391 20-556, looked up)
chain: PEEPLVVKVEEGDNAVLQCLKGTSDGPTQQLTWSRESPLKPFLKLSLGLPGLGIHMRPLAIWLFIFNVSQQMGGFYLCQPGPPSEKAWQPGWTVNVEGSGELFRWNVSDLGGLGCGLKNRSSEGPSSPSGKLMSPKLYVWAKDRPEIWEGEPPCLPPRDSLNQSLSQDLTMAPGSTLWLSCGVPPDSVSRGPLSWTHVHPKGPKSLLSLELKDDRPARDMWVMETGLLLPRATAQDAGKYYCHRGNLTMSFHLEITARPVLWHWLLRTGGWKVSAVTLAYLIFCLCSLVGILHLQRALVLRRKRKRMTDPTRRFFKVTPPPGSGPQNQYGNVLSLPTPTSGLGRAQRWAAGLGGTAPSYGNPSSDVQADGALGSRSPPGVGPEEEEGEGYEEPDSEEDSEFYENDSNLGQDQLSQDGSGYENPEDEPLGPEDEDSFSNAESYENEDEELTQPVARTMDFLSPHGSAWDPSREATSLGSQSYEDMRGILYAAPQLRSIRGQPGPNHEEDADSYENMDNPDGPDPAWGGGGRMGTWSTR
notes: Endogenous protein in tissue section
binding result [2]: binds

binding result [3]: binds
B3: MLH1 (other, UniProt P40692 2-756, looked up)
chain: SFVAGVIRRLDETVVNRIAAGEVIQRPANAIKEMIENCLDAKSTSIQVIVKEGGLKLIQIQDNGTGIRKEDLDIVCERFTTSKLQSFEDLASISTYGFRGEALASISHVAHVTITTKTADGKCAYRASYSDGKLKAPPKPCAGNQGTQITVEDLFYNIATRRKALKNPSEEYGKILEVVGRYSVHNAGISFSVKKQGETVADVRTLPNASTVDNIRSIFGNAVSRELIEIGCEDKTLAFKMNGYISNANYSVKKCIFLLFINHRLVESTSLRKAIETVYAAYLPKNTHPFLYLSLEISPQNVDVNVHPTKHEVHFLHEESILERVQQHIESKLLGSNSSRMYFTQTLLPGLAGPSGEMVKSTTSLTSSSTSGSSDKVYAHQMVRTDSREQKLDAFLQPLSKPLSSQPQAIVTEDKTDISSGRARQQDEEMLELPAPAEVAAKNQSLEGDTTKGTSEMSEKRGPTSSNPRKRHREDSDVEMVEDDSRKEMTAACTPRRRIINLTSVLSLQEEINEQGHEVLREMLHNHSFVGCVNPQWALAQHQTKLYLLNTTKLSEELFYQILIYDFANFGVLRLSEPAPLFDLAMLALDSPESGWTEEDGPKEGLAEYIVEFLKKKAEMLADYFSLEIDEEGNLIGLPLLIDNYVPPLEGLPIFILRLATEVNWDEEKECFESLSKECAMFYSIRKQYISEESTLSGQQSEVPGSIPNSWKWTVEHIVYKALRSHILPPKHFTEDGNILQLANLPDLYKVFERC
notes: Endogenous protein of Hela cells in xenograft
